The text below walks through data of patent publication US20210380703A1.

B1: 371_B10 (antibody, V domains shown)
VH: EVQLLESGGGLVQPGGSLRLSCAASGFTFDSYSMNWVRQAPGKGLEWVSNINYNGGYTGYADSVKGRFTISRDNSKNTLYLQMNSLRAEDTAVYYCARSATWHDTHLDYWGQGTLVTVSS
VL: DIQMTQSPSSLSASVGDRVTITCRASQSIVSYVNWYQQKPGKAPKLLIYAATSRASGVPSRFSGSGSGTDFTLTISSLQPEDFATYYCQQSYDLPLTFGGGTKVEIK
B2: 365_G02 (antibody, V domains shown)
VH: EVQLLESGGGLVQPGGSLRLSCAASGFTFSDYSMNWVRQAPGKGLEWVSNINYNSGYKGYADSVKGRFTISRDNSKNTLYLQMNSLRAEDTAVYYCARSATWHDTHLDYWGQGTLVTVSS
VL: DIQMTQSPSSLSASVGDRVTITCRASQSIVTYLNWYQQKPGKAPKLVIYAVTSLHSGVPSRFSGSGSGTDFTLTISSLQPEDFATYYCQQSYELPLTFGGGTKVEIK
B3: 374_G12 (antibody, V domains shown)
VH: EVQLLESGGGLVQPGGSLRLSCAASGFTFDDYGMNWVRQAPGKGLEWVSSINYNGGYKSYADSVKGRFTISRDNSKNTLYLQMNSLRAEDTAVYYCARSATWHDTHLDYWGQGTLVTVSS
VL: DIQMTQSPSSLSASVGDRVTITCRASQSILTYVNWYQQKPGKAPKLVIYAATSLASGVPSRFSGSGSGTDFTLTISSLQPEDFATYYCQQSYNSPLTFGGGTKVEIK
B4: 365_E04 (antibody, V domains shown)
VH: EVQLLESGGGLVQPGGSLRLSCAASGFTFDSYGMHWVRQAPGKGLEWVASINYNGGYKSYADSVKGRFTISRDNSKNTLYLQMNSLRAEDTAVYYCARAANWHDTALDYWGQGTLVTVSS
VL: DIQMTQSPSSLSASVGDRVTITCRASQSILSYVNWYQQKPGKAPKLLIYAATSLASGVPSRFSGSGSGTDFTLTISSLQPEDFATYYCQQSYELPLTFGGGTKVEIK
B5: 374_A03 (antibody, V domains shown)
VH: EVQLLESGGGLVQPGGSLRLSCAASGFTFDSYSMNWVRQAPGKGLEWVSNINYNGGYTSYADSVKGRFTISRDNSKNTLYLQMNSLRAEDTAVYYCARSATWHDTHLDYWGQGTLVTVSS
VL: DIQMTQSPSSLSASVGDRVTITCRASQSILTYLNWYQQKPGKAPKLLIYAATSRASGVPSRFSGSGSGTDFTLTISSLQPEDFATYYCQQSYDNPLTFGGGTKVEIK
B6: 365_D06 (antibody, V domains shown)
VH: EVQLLESGGGLVQPGGSLRLSCAASGFTFDSYSMNWVRQAPGKGLEWVSNINYNGGYTSYADSVKGRFTISRDNSKNTLYLQMNSLRAEDTAVYYCARSATWHDTHLDYWGQGTLVTVSS
VL: DIQMTQSPSSLSASVGDRVTITCRASQSILTYVNWYQQKPGKAPKLLIYAATSRASGVPSRFSGSGSGTDFTLTISSLQPEDFATYYCQQSYSLPLTFGGGTKVEIK
B7: 374_C07 (antibody, V domains shown)
VH: EVQLLESGGGLVQPGGSLRLSCAASGFTFDSYSMNWVRQAPGKGLEWVSNINYNGGYTSYADSVKGRFTISRDNSKNTLYLQMNSLRAEDTAVYYCARSATWHDTHLDYWGQGTLVTVSS
VL: DIQMTQSPSSLSASVGDRVTITCRASQSIISYLNWYQQKPGKAPKLLIYAATSRASGVPSRFSGSGSGTDFTLTISSLQPEDFATYYCQQSDELPLTFGGGTKVEIK
B8: 373_D02 (antibody, V domains shown)
VH: EVQLLESGGGLVQPGGSLRLSCAASGFTFSSYSMNWVRQAPGKGLEWVSNINYNSGYKGYADSVKGRFTISRDNSKNTLYLQMNSLRAEDTAVYYCARSATWHDTHLDYWGQGTLVTVSS
VL: DIQMTQSPSSLSASVGDRVTITCRASQSILSYLNWYQQKPGKAPKLLIYAATSLASGVPSRFSGSGSGTDFTLTISSLQPEDFATYYCQQSYDLPLTFGGGTKVEIK
B9: 370_D07 (antibody, V domains shown)
VH: EVQLLESGGGLVQPGGSLRLSCAASGFTFSSYGMNWVRQAPGKGLEWVSNINYNSGYTGYADSVKGRFTISRDNSKNTLYLQMNSLRAEDTAVYYCARSATWHDTHLDYWGQGTLVTVSS
VL: DIQMTQSPSSLSASVGDRVTITCRASQSILSYVNWYQQKPGKAPKLVIYAATSLASGVPSRFSGSGSGTDFTLTISSLQPEDFATYYCQQSYESPLTFGGGTKVEIK
B10: 374_D11 (antibody, V domains shown)
VH: EVQLLESGGGLVQPGGSLRLSCAASGFTFDSYGMNWVRQAPGKGLEWVSNINYNSGYTGYADSVKGRFTISRDNSKNTLYLQMNSLRAEDTAVYYCARSATWHDTHLDYWGQGTLVTVSS
VL: DIQMTQSPSSLSASVGDRVTITCRASQSILTYLNWYQQKPGKAPKLLIYAATSRASGVPSRFSGSGSGTDFTLTISSLQPEDFATYYCQQSYETPLTFGGGTKVEIK
B11: 369_E09 (antibody, V domains shown)
VH: EVQLLESGGGLVQPGGSLRLSCAASGFTFDSYSMNWVRQAPGKGLEWVSNINYNSGYKGYADSVKGRFTISRDNSKNTLYLQMNSLRAEDTAVYYCARSATWHDTHLDYWGQGTLVTVSS
VL: DIQMTQSPSSLSASVGDRVTITCRASQSILSYLNWYQQKPGKAPKLVIYAATSRASGVPSRFSGSGSGTDFTLTISSLQPEDFATYYCQQSYDLPLTFGGGTKVEIK
B12: 367_F10 (antibody, V domains shown)
VH: EVQLLESGGGLVQPGGSLRLSCAASGFTFDSYGMNWVRQAPGKGLEWVSGINYNSGYTSYADSVKGRFTISRDNSKNTLYLQMNSLRAEDTAVYYCARAATWHDTHLDYWGQGTLVTVSS
VL: DIQMTQSPSSLSASVGDRVTITCRASQSILTYLNWYQQKPGKAPKLLIYAATSRASGVPSRFSGSGSGTDFTLTISSLQPEDFATYYCQQSYDTPLTFGGGTKVEIK
B13: 374_A08 (antibody, V domains shown)
VH: EVQLLESGGGLVQPGGSLRLSCAASGFTFDSYSMNWVRQAPGKGLEWVSNINYNSGYTSYADSVKGRFTISRDNSKNTLYLQMNSLRAEDTAVYYCARSATWHDTHLDYWGQGTLVTVSS
VL: DIQMTQSPSSLSASVGDRVTITCRASQSIVTYLNWYQQKPGKAPKLLIYAATSLASGVPSRFSGSGSGTDFTLTISSLQPEDFATYYCQQSYDLPLTFGGGTKVEIK
B14: 373_A07 (antibody, V domains shown)
VH: EVQLLESGGGLVQPGGSLRLSCAASGFTFSSYSMNWVRQAPGKGLEWVSNINYNGGYTGYADSVKGRFTISRDNSKNTLYLQMNSLRAEDTAVYYCARSATWHDTHLDYWGQGTLVTVSS
VL: DIQMTQSPSSLSASVGDRVTITCRASQSILTYVNWYQQKPGKAPKLLIYAATSRASGVPSRFSGSGSGTDFTLTISSLQPEDFATYYCQQSDNLPLTFGGGTKVEIK
B15: 367_D02 (antibody, V domains shown)
VH: EVQLLESGGGLVQPGGSLRLSCAASGFTFDDYSMNWVRQAPGKGLEWVSNINYNGGYTSYADSVKGRFTISRDNSKNTLYLQMNSLRAEDTAVYYCARSATWHDTHLDYWGQGTLVTVSS
VL: DIQMTQSPSSLSASVGDRVTITCRASQSIVTYVNWYQQKPGKAPKLLIYAATSRASGVPSRFSGSGSGTDFTLTISSLQPEDFATYYCQQSYENPLTFGGGTKVEIK
B16: 374_E03 (antibody, V domains shown)
VH: EVQLLESGGGLVQPGGSLRLSCAASGFTFSSYSMNWVRQAPGKGLEWVSNINYNSGYKGYADSVKGRFTISRDNSKNTLYLQMNSLRAEDTAVYYCARSATWHDTHLDYWGQGTLVTVSS
VL: DIQMTQSPSSLSASVGDRVTITCRASQSILTYVNWYQQKPGKAPKLVIYAATSLASGVPSRFSGSGSGTDFTLTISSLQPEDFATYYCQQSYDTPLTFGGGTKVEIK
B17: 366_C07 (antibody, V domains shown)
VH: EVQLLESGGGLVQPGGSLRLSCAASGFTFSSYSMNWVRQAPGKGLEWVSNINYNGGYTSYADSVKGRFTISRDNSKNTLYLQMNSLRAEDTAVYYCARSATWHDTHLDYWGQGTLVTVSS
VL: DIQMTQSPSSLSASVGDRVTITCRASQSILTYVNWYQQKPGKAPKLLIYAATSRASGVPSRFSGSGSGTDFTLTISSLQPEDFATYYCQQSYNSPLTFGGGTKVEIK
B18: 369_G09 (antibody, V domains shown)
VH: EVQLLESGGGLVQPGGSLRLSCAASGFTFDSYSMNWVRQAPGKGLEWVSNINYNGGYTGYADSVKGRFTISRDNSKNTLYLQMNSLRAEDTAVYYCARSATWHDTHLDYWGQGTLVTVSS
VL: DIQMTQSPSSLSASVGDRVTITCRASQSIVTYLNWYQQKPGKAPKLLIYAATSRASGVPSRFSGSGSGTDFTLTISSLQPEDFATYYCQQSYDLPLTFGGGTKVEIK
B19: 365_A02 (antibody, V domains shown)
VH: EVQLLESGGGLVQPGGSLRLSCAASGFTFDSYSMNWVRQAPGKGLEWVSNINYNGGYTSYADSVKGRFTISRDNSKNTLYLQMNSLRAEDTAVYYCARSATWHDTHLDYWGQGTLVTVSS
VL: DIQMTQSPSSLSASVGDRVTITCRASQSILTYVNWYQQKPGKAPKLLIYAATSRASGVPSRFSGSGSGTDFTLTISSLQPEDFATYYCQQSYNSPLTFGGGTKVEIK
B20: 374_G01 (antibody, V domains shown)
VH: EVQLLESGGGLVQPGGSLRLSCAASGFTFDSYSMNWVRQAPGKGLEWVSNINYNSGYTSYADSVKGRFTISRDNSKNTLYLQMNSLRAEDTAVYYCARSATWHDTHLDYWGQGTLVTVSS
VL: DIQMTQSPSSLSASVGDRVTITCRASQSILTYVNWYQQKPGKAPKLLIYATTSRHSGVPSRFSGSGSGTDFTLTISSLQPEDFATYYCQQSYNLPLTFGGGTKVEIK
B21: 367_G03 (antibody, V domains shown)
VH: EVQLLESGGGLVQPGGSLRLSCAASGFTFDSYSMHWVRQAPGKGLEWVANINYNGGYTSYADSVKGRFTISRDNSKNTLYLQMNSLRAEDTAVYYCARAATWHDTHLDYWGQGTLVTVSS
VL: DIQMTQSPSSLSASVGDRVTITCRASQSIVSYVNWYQQKPGKAPKLVIYAATSRHSGVPSRFSGSGSGTDFTLTISSLQPEDFATYYCQQSYDLPLTFGGGTKVEIK

The test deals with human Fc (human). Put plainly: ELISA, negative control. (In general: An ELISA detects its analyte on a solid surface through an enzyme-linked reagent.)
For the molecule B1, the optical density stood at 0.387 OD.

In the case of B2, the optical density came to 0.325 OD. With B3 the figure was 0.214 OD; with B4, 0.46 OD. As for B5, the optical density was 0.178 OD. With B6 the figure was 0.319 OD.

Consider B7, for which the optical density worked out at 0.225 OD. Molecule B8 returned an optical density of 0.18 OD.

For B9, the optical density is 0.309 OD. In the case of B10, the optical density was 0.162 OD. Take B11: the optical density is 0.278 OD. With B12 the figure was 0.253 OD.

In the case of B13, the optical density is 0.16 OD.

With B14, the optical density was 0.177 OD. The same measure for B15: 0.321 OD. For B16, the optical density turned out to be 0.176 OD. In the case of B17, the optical density is 0.301 OD. For the molecule B18, the optical density worked out at 0.395 OD. Molecule B19 yielded an optical density of 0.374 OD. With B20 the figure was 0.161 OD; with B21, 0.341 OD.
